The text below walks through data of US20160361384A1, “COSMETIC USE OF DERMICIDIN, OR ANALOGUES OR FRAGMENTS THEREOF, FOR THE PREVENTION AND/OR TREATMENT AND DIAGNOSIS OF OILY SKIN AND AESTHETIC SKIN DISORDERS ASSOCIATED THEREWITH” (L'OREAL, priority 2013, published 2016).

Ends that are not written are not given here.

In the assay the test system is P. acnes ATCC 6919. The format is cell-based, Propionibacterium acnes. To be noted: for MIC in μg/ml P. acnes: P. acnes ATCC 6919, 48 h incubation, optical density at 620 nm, concentration range 5 to 100 μg/ml, triplicate. As to the method:
A micromethod was developed in a microplate.
The test principle is based on bringing decreasing concentrations of antimicrobial peptide (DCD-1L) into contact with an identical inoculum of P. acnes in a culture medium conducive to the growth of P. acnes. After incubation of the microplate for 48 h with the P. acnes strain, the optical density of the sample (620 nm) is measured and the results are expressed as percentage growth calculated relative to a growth control without antimicrobial peptide (negative control).
In addition, the inoculum is also brought into contact with triclosan in order to have a positive control.
The minimum inhibitory concentration or MIC is the lowest concentration of antibiotic that is sufficient to inhibit, in the laboratory, i.e. in vitro, the growth of a bacterial strain (bacterial colony).
The concentration range chosen ranged from 5 to 100 μg/ml.
Each concentration was tested in triplicate.
The inhibitory activity of the peptides was evaluated on the following microorganism: • P. acnes ATCC 6919 (Gram+bacterium)

Turning to “SSLLEKGLDGAKKAVGGLGKLGKDAVEDLESVGKGAVHDVKDVLDSVL [Dermcidin (DCD1L)]”, the “MIC in μg/ml P. acnes” value was under 5 µg/mL. Besides, the “growth of P. acnes” value (in the presence of a low concentration of the peptide) is listed as “greatly inhibited”.

B1: RNASE 7: antimicrobial peptide RNASE 7, Human Plv extraction (heel horn) (protein, UniProt Q9H1E1 29-156, looked up)
Ribonuclease 7: KPKGMTSSQWFKIQHMQPSPQACNSAMKNINKHTKRCKDLNTFLHEPFSSVAATCQTPKIACKNGDKNCHQSHGAVSLTMCKLTSGKHPNCRYKEKRQNKSYVVACKPPQKKDSQQFHLVPVHLDRVL
Consider B1, for which the “MIC in μg/ml P. acnes” value was over 100 µg/mL.

B2: Lacritin: antimicrobial peptide Lacritin, synthesized by hybrogenics Ref: Hgx 2238v1 (peptide, UniProt Q9GZZ8 20-138, looked up)
Extracellular glycoprotein …: EDASSDSTGADPAQEAGTSKPNEEISGPAEPASPPETTTTAQETSAAAVQGTAKVTSSRQELNPLKSIVEKSILLTEQALAKAGKGMHGGVPGGKQFIENGSEFAQKLLKKFSLLKPWA
In the case of B2, the “MIC in μg/ml P. acnes” value was 100 µg/mL.

B3: Recombinant human S100A7: recombinant human S100A7, Interchim (Protera), folding verified by NMR, batch EN00510-23/24/25 (protein, UniProt P31151 2-101, looked up)
Protein S100-A7: SNTQAERSIIGMIDMFHKYTRRDDKIEKPSLLTMMKENFPNFLSACDKKGTNYLADVFEKKDKNEDKKIDFSEFLSLLGDIATDYHKQSHGAAPCSGGSQ
For B3, the “MIC in μg/ml P. acnes” value is over 100 µg/mL.
